Test results: patent publication US20250296996A1 (BROADWING BIO, published 2025)

Key:
[1] = target: T1, muANGPTL7-his (R&D Systems) (mouse, UniProt Q8R1Q3 22-337, limits assumed); experiment: BLI Octet HTX; IgG on AHC sensor; muANGPTL7-his at 200 nM; 1:1 fit
T1 construct: Bought protein; also called mouse ANGPTL7 protein
T1 sequence (looked up): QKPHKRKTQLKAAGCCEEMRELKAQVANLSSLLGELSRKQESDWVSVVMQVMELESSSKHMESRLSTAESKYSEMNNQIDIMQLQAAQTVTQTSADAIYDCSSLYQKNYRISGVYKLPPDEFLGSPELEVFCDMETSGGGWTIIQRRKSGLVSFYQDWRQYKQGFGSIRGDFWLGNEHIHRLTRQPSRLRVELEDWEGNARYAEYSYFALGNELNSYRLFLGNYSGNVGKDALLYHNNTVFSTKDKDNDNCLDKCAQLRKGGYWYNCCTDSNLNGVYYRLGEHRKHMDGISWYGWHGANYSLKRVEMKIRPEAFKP
Experimental: (§1) Experiments were also conducted to determine the reactivity and dissociation constants (KD) of anti-ANGPTL7 antibodies with the mouse ANGPTL7 protein. Binding experiments were performed on Octet HTX (ForteBio) in 1×PBS, pH 7.4, 0.1 mg/mi BSA, 0.05% Sodium Azide, and 0.02% Tween 20. Antibodies at a concentration of 50 nM were loaded on pre-hydrated AHC biosensors for 5 mA. The loaded sensors were dipped into monovalent muANGPTL7-his (R&D Systems) at a concentration of 200 nM for 5 min of association, followed by 10 min of dissociation. […] Responses (nm) at the end of association were also determined (Table 5).

[2] = target: T2, P60 (huANGPTL7-Fibrinogen-his) (human, UniProt O43827 129-343); experiment: BLI Octet HTX; IgG on AHC sensor; P60 at 200 nM; 1:1 fit
T2 construct: also called human ANGPTL7 fibrinogen domain; not shown: C-terminal short linker and His tag
T2 sequence: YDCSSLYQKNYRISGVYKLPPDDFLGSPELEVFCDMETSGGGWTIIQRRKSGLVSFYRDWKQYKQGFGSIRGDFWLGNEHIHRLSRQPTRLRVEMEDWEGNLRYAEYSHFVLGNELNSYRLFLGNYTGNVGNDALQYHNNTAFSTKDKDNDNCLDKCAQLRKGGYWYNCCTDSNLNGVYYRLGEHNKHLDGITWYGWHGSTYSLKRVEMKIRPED
Experimental: (§2) ANGPTL7 Antibody Kinetics. Experiments were conducted to determine the reactivity and dissociation constants (KD) of anti-ANGPTL7 antibodies with the human fibrinogen domain of the ANGPTL7 protein. Binding experiments were performed on Octet HTX (ForteBio) in 1×PBS, pH 7.4, 0.1 mg/ml BSA, 0.05% Sodium Azide, and 0.02 Tween 20. Antibodies at a concentration of 50 nM were loaded on pre-hydrated AHC biosensors for 5 min. The loaded sensors were dipped into monovalent P60 (huANGPTL7-Fibrinogen-his) at a concentration of 200 nM for 5 min association, followed by 10 min dissociation. […] Responses (nm) at the end of association were also determined (Table 2).

[3] = target: T2, P60 (huANGPTL7-Fibrinogen-his); experiment: BLI Octet HTX; IgG on AHC sensor; P60 at 200 nM
Experimental: as §2

[4] = target: T3, Pext-01 (huANGTPL7-FLAG multimer) (human, UniProt O43827 27-346); experiment: BLI Octet HTX; IgG on AHC sensor; Pext-01 at 100 nM; 1:1 fit; apparent KD
T3 construct: also called PExt-1; human wild type ANGPTL7 multimer; not shown: FLAG tag
T3 sequence: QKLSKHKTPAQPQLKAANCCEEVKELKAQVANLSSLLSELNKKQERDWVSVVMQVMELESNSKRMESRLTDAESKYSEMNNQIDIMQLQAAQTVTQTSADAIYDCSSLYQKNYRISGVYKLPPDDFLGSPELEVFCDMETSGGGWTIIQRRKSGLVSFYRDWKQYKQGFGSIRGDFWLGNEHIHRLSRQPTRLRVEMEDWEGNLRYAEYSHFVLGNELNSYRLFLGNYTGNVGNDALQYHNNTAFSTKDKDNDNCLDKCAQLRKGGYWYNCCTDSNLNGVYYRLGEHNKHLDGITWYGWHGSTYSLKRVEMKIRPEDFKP
Experimental: Experiments were also conducted to determine the reactivity and dissociation constants (KD) of anti-ANGPTL7 antibodies with the human ANGPTL7 multimer protein. Binding experiments were performed on Octet HTX (ForteBio) in 1×PBS, pH 7.4, 0.1 mg/ml BSA, 0.05% Sodium Azide, and 0.02% Tween 20. Antibodies at a concentration of 50 nM were loaded on pre-hydrated AHC biosensors for 5 mi. The loaded sensors were dipped into Pext-01 (huANGTPL7-FLAG) at a concentration of 100 nM for 5 min of association, followed by 10 min of dissociation. […] Responses (nm) at the end of association were also determined (Table 7).

[5] = target: T1, muANGPTL7-his (R&D Systems); experiment: BLI Octet HTX; IgG on AHC sensor; muANGPTL7-his at 200 nM
Experimental: as §1

P66 (rabbit ANGPTL7-his) = target: T4, P66 (rabbit ANGPTL7-his) (rabbit, UniProt G1T4P1 27-344); experiment: BLI Octet HTX; IgG on AHC sensor; P66 at 200 nM; 1:1 fit
T4 construct: mature; also called rabbit ANGPTL7 protein
T4 sequence: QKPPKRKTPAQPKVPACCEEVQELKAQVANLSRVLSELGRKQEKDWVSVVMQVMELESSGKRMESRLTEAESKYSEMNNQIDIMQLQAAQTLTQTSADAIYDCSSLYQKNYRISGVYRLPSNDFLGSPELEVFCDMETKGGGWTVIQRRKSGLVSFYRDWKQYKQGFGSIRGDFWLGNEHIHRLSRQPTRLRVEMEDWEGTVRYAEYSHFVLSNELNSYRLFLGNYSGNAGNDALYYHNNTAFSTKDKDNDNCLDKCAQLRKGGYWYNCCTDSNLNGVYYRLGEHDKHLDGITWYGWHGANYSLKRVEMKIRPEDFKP
Experimental: as §1, with “([…])” for “(KD)”, “rabbit” for “mouse”, “Rx PBS,” for “1×PBS,”, “min.” for “mA.”, “P66 (rabbit ANGPTL7-his)” for “muANGPTL7-his (R&D Systems)”, “6).” for “5).”

B1: ATX-P-445 (antibody, human IgG1, kappa, N297A, V domains shown)
VH: EVQLVESGGGLVQPGGSLRLSCAASGFTFSSHDMHWVRQVTGKGLEWVSGIDPAGDTYYPDSVKGRFTISRENAKNSLYLQMNSLRAGDTAVYYCTRGEASSSSEDAFDIWGQGTMVTVSS
VL: not shown
notes: Full chains (VH + hIgG1-Agly-Fc)
In the case of B1, the Response [1] is reported as 0.01 nm, the Response [2] is reported as 0.12 nm and the binding result [3] is reported as “no binding (tested: 200 nM)”. For the same binder, the Response [4] was 0.8 nm and the binding result [5] was “no binding (tested: 200 nM)”.

B2: ATX-P-448 (antibody, human IgG1, kappa, N297A, V domains shown)
VH: QVQLVESGGGVVQPGRSLRLSCAASGFPFSSYGMHWVRQAPGKGLEWVAVMSYDGINGYYADSVKGRFTISRDNSKNTLYLQMNSLRAEDTAVYYCARLVYADDAFDIWGQGTTVTVSS
VL: EIVLTQSPATLSLSPGERATLSCRASQSVSSYLAWYQQKPGQAPRLLIYDASNRATGIPARFSGSGSGTDFTLTISSLEPEDFAVYYCQQRSNWPLTFGGGTKVEIKR
notes: as for B1
Binder B2 has a Response [1] of 0.69 nm, a Kd (P66 (rabbit ANGPTL7-his)) of 0.949 nM and a Response (P66 (rabbit ANGPTL7-his)) of 0.75 nm. The Kd [2] was 4.69 nM and the Response [4] was 0.58 nm.

B3: ATX-P-432 (antibody, human IgG1, kappa, N297A, V domains shown)
VH: QVQLVQSGAEVKKPGASVKVSCKASGYTFTDYYIHWVRQAPGPGLEWLGWINPNTGATKYAQKFQGRVTMTRDTSISTAYMELSRLRSDDTAVYYCAREDNGNYGDVFDIWGQGTMVTVSS
VL: not shown
notes: as for B1
For B3, the Response [1] was 0.03 nm and the binding result [5] was “no binding (tested: 200 nM)”.

B4: ATX-P-439 (antibody, human IgG1, kappa, N297A, V domains shown)
VH: not shown
VL: DIQMTQSPSSVSASVGDRVTITCRASQGISSWLAWYQQKPGKAPKLLIYAASSLQSGVPSRFSGSGSGTDFTLTISSLQPEDFATYYCQQANSFPWTFGQGTKVDIKR
notes: as for B1
B4 showed a Response [1] of 0.53 nm, a Kd (P66 (rabbit ANGPTL7-his)) of 2.95 nM and a Response (P66 (rabbit ANGPTL7-his)) of 0.92 nm. The Response [2] was 0.28 nm, the Kd [4] was 12.8 nM and the Response [4] was 0.87 nm.

B5: ATX-P-442 (antibody, human IgG1, kappa, N297A, V domains shown)
VH: QITLKESGPTLVKPTQTLTLTCTFSGFSLSTSGVGVGWIRQPPGKALEWLALIYWNDDKRYSPSLKSRLTITKDTSKNLVVLTMTNMDPVDTATYYCARDYGDYWFFDLWGRGTPVTVSS
VL: DIQMTQSPSSLSASVGDRVTITCRASQGISSYLAWYQQKPGKAPKLLIYAASSLQSGVPSRFSGSGSGTDFTLTISSLQPEDFATYYCQQSFSTPLTFGGGTKLEIKR
notes: as for B1
In the case of B5, the Response [1] is reported as 0.32 nm, the Kd (P66 (rabbit ANGPTL7-his)) is reported as 3.38 nM and the Response (P66 (rabbit ANGPTL7-his)) is reported as 0.95 nm. For the same binder, the Kd [2] was 4.62 nM and the Response [2] was 0.69 nm.

B6: ATX-P-440 (antibody, human IgG1, kappa, N297A, V domains shown)
VH: EVQLVESGGGVVRPGGSLRLSCAASGFTFDDYGMSWVRQAPGKGLEWVSTINWNGGNTGYADSVKGRFTISRDNAKNSLYLQMNSLRAEDTALYYCARDEGAAGLGYYFDYWGQGTLVTVSS
VL: DIQMTQSPSTLSASVGDRVTITCRASQSISSWLAWYQQKPGKAPKLLIYATSSLQSGVPSRFSGSGSGTDFTLTISSLQPEDFATYYCQQSYSTPITFGQGTRLEIKR
notes: as for B1
Work on B6 yielded a Kd [1] of 55.3 nM, a Response [1] of 0.21 nm and a Kd (P66 (rabbit ANGPTL7-his)) of 6.27 nM. The Response (P66 (rabbit ANGPTL7-his)) was 0.57 nm, the Kd [2] was 55.8 nM and the Response [4] was 0.61 nm.

B7: ATX-P-425 (antibody, human IgG1, kappa, N297A, V domains shown)
VH: EVQLVESGGGLVKPGGSLRLSCAASGFTFSTYSMNWVRQAPGKGLEWVSSITSSSSYMFYADSVMGRFTISRDNAKNSLYLQMNSLRAEDTADYYCARDSNWGEAFDIWGQGTMVTVSS
VL: DIQMTQSPSSLSASVGDRVTITCRASQGIRIDLGWFQQKPGKAPKRLIYAASSLPSGVPSRFSGSGSGTEFTLTISSLQPEDFATYYCLQHNSYPWTFGQGTKVEIKR
notes: as for B1
B7 showed a Kd (P66 (rabbit ANGPTL7-his)) of 2.38 nM, a Response (P66 (rabbit ANGPTL7-his)) of 0.95 nm and a Kd [2] of 305 nM. The Response [4] was 0.83 nm.

B8: ATX-P-424 (antibody, human IgG1, kappa, N297A, V domains shown)
VH: EVQLVESGGGLVKPGGSLRLSCAASGFTFSSYSMNWVRQAPGKGLEWVSSITSSSYIFYADSLKGRFTISRDNAKNSLFLQMNSLRAEDTAVYYCARDSNWGEAFDIWGQGTMVTVSS
VL: DIQMTQSPSSLSASVGDRVTITCRASQGIRNDLGWYQQKPGKAPKRLIYAASSLPSGVPSRFSGSGSGTEFTLTISSLQPEDFAIYYCLQHNSYPWTFGQGTKVEIKR
notes: as for B1
B8 showed a Response [1] of 0.14 nm, a Kd (P66 (rabbit ANGPTL7-his)) of 4.65 nM and a Response (P66 (rabbit ANGPTL7-his)) of 0.93 nm. The Kd [2] was 106 nM, the Response [4] was 0.76 nm and the binding result [5] was “no binding (tested: 200 nM)”.

B9: ATX-P-423 (antibody, human IgG1, kappa, N297A, V domains shown)
VH: QVQLVESGGGVVQPGRSLRLSCAASGFTFSSYGMHWVRQAPGKGLEWVSHITYDGSDKYYGDSVKGRFTISRDNSKNTLYLQMNSLRAEDTAVYYCAKDGYSSGWWYFDYWGQGTLVTVSS
VL: DIQMTQSPSSLSASVGDRVTITCRASQGIRNDLGWYQQKPGKAPKRLIYAASSLQSGVPSRFSGSGSGTEFALTISSLQPEDFATYYCLQHNSYPLTFGGGTKLEIKR
notes: as for B1
B9 gave a Response [1] of 0.14 nm, a Kd (P66 (rabbit ANGPTL7-his)) of 6.69 nM and a Response (P66 (rabbit ANGPTL7-his)) of 1.02 nm. For the same binder, the Kd [2] was 18.3 nM, the Response [4] was 0.87 nm and the binding result [5] was “no binding (tested: 200 nM)”.

B10: ATX-P-427 (antibody, human IgG1, kappa, N297A, V domains shown)
VH: EVQLVESGGGVVRPGGSLRLSCAASGFSFDDYGMSWVRQVPGKGLEWVSGINWNGGSTGYADSVKGRFTISRDNAKNSLYLQMSSLRAEDTALYYCASYSGSFRDAFDIWGQGTMVTVSS
VL: AIQMTQSPSSLSASVGDRVTITCRASQGIRNDLGWYQQKPGKAPKLLIYAASSLQSGVPSRFSGSGSGTDFTLTISSLQPEDFATYYCLQDYNYPYTFGQGTKLEIKR
notes: as for B1
For B10, the Kd [1] was 10.3 nM, the Response [1] was 0.48 nm and the Kd (P66 (rabbit ANGPTL7-his)) was 3.21 nM. For the same binder, the Response (P66 (rabbit ANGPTL7-his)) was 0.93 nm, the Kd [2] was 65.1 nM and the Response [2] was 0.5 nm. The Response [4] was 0.82 nm.
